Assay results from patent US20240360242A1 (KISOJI BIOTECHNOLOGY, published 2024).
Where a chain is given by its changes, count along the chain named.

T1: recombinant human TROP2 extracellular domain (aa 1-274) comprising His tag (human, UniProt P09758 27-274)
T1 construct: Used here for all assays on recombinant human TROP2 (ELISA, immunoblot, SPR, crystal), although only some of them name the catalogue number; also called human recombinant TROP2; recombinant human TROP2 protein; not shown: His tag
T1 sequence: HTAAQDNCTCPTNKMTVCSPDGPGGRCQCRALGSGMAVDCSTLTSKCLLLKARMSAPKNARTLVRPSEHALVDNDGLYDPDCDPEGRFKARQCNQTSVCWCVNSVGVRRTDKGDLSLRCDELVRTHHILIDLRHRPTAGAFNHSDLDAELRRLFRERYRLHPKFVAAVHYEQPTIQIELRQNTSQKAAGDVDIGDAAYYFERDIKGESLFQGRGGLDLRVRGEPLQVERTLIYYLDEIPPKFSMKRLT

B1: KD030 (antibody, V domains shown)
VH: QVQLQESGGGLVQPGGSLRLSCAASGFPFSSADMSWVRQAPGKGLEWVSYINADGSKTYYADTVKGRFTISRDNSKNTLYLQMNSLRAEDTAVYRCARAKLTDTHYVEDYWGQGTMVTVSS
notes: KD002 humanized variant
B2: KD032 (antibody, V domains shown)
VH: B1 VH with Q5L
notes: KD002 humanized variant
B3: KD022 (antibody, V domains shown)
VH: B1 VH with Q1E, Q5V, L45P, S75A, R95Y, M116Q
notes: KD002 humanized variant
B4: KD029 (antibody, V domains shown)
VH: B1 VH with L45P, A61P, S85N, V93L
notes: KD002 humanized variant
B5: KD028 (antibody, V domains shown)
VH: B1 VH with Q1E, Q5L, Y50V, R95Y
notes: KD002 humanized variant
B6: KD035 (antibody, V domains shown)
VH: B1 VH with L45P
notes: KD002 humanized variant
B7: KD023 (antibody, V domains shown)
VH: B1 VH with Q5V, L45P, A61P, S75A, R95Y, M116Q
notes: KD002 humanized variant
B8: KD036 (antibody, V domains shown)
VH: B1 VH with A61P
notes: KD002 humanized variant
B9: KD027 (antibody, V domains shown)
VH: B1 VH with L11M, P14V, L45P, A61P, T63S, S75A, R87K, A88P, M116Q
notes: KD002 humanized variant
B10: KD034 (antibody, V domains shown)
VH: B1 VH with R95Y
notes: KD002 humanized variant
B11: KD040 (antibody, V domains shown)
VH: B1 VH with G44Q, L45R
notes: KD002 humanized variant
B12: KD038 (antibody, V domains shown)
VH: B1 VH with V93L
notes: KD002 humanized variant
B13: KD021 (antibody, V domains shown)
VH: B1 VH with Q1E, Q5V, Y59S, S75A, R95Y, M116L
notes: KD002 humanized variant
B14: KD033 (antibody, V domains shown)
VH: B1 VH with Y50V
notes: KD002 humanized variant
B15: KD042 (antibody, V domains shown)
VH: B1 VH with D54N
notes: KD002 humanized variant
B16: KD037 (antibody, V domains shown)
VH: B1 VH with S85N
notes: KD002 humanized variant
B17: KD041 (antibody, V domains shown)
VH: B1 VH with D54E
notes: KD002 humanized variant
B18: KD039 (antibody, V domains shown)
VH: B1 VH with L11M, M116Q
notes: KD002 humanized variant
B19: KD025 (antibody, V domains shown)
VH: B1 VH with Q5V, P14V, L45P, A61P, S75A, R87K, A88P, M116Q
notes: KD002 humanized variant
B20: KD031 (antibody, V domains shown)
VH: B1 VH with Q1E
notes: KD002 humanized variant
B21: KD024 (antibody, V domains shown)
VH: B1 VH with Q5V, L45P, A61P, S75A, M116Q
notes: KD002 humanized variant
B22: KD026 (antibody, V domains shown)
VH: B1 VH with L11M, P14V, L45P, A61P, S75A, R87K, A88P, M116Q
notes: KD002 humanized variant
B23: KD054 (antibody, V domains shown)
VH: QVQLQESGGGLIQPGGSLRLSCAASGFTFSGSDMSWVRQAPGKGLEWVSYITSGGTTYYADTVKGRFTISRDNSKNTLYLQMNSLRAEDTAVYRCAKSRLTDSHYVEDAWGQGTLVTVSS
notes: KD005 humanized variant
B24: KD051 (antibody, V domains shown)
VH: B23 VH with I12V, L45P, A60P, S74A, R86K, A87P, E88D, V92L, L115Q
notes: KD005 humanized variant
B25: KD058 (antibody, V domains shown)
VH: B23 VH with R94Y
notes: KD005 humanized variant
B26: KD049 (antibody, V domains shown)
VH: B23 VH with I12V, L45P, A60P, L115Q
notes: KD005 humanized variant
B27: KD064 (antibody, V domains shown)
VH: B23 VH with V37Y, L45R
notes: KD005 humanized variant with framework 2 changes
B28: KD045 (antibody, V domains shown)
VH: B23 VH with Q1E, Q5L, I12V
notes: KD005 humanized variant
B29: KD062 (antibody, V domains shown)
VH: B23 VH with V92L
notes: KD005 humanized variant
B30: KD044 (antibody, V domains shown)
VH: B23 VH with Q1E, Q5L, I12V, R94Y
notes: KD005 humanized variant
B31: KD043 (antibody, V domains shown)
VH: B23 VH with Q1E, Q5L, I12V, Y50A, R94Y
notes: KD005 humanized variant
B32: KD059 (antibody, V domains shown)
VH: B23 VH with L45P
notes: KD005 humanized variant
B33: KD046 (antibody, V domains shown)
VH: B23 VH with Q5L, I12V, L45P, R94Y
notes: KD005 humanized variant
B34: KD048 (antibody, V domains shown)
VH: B23 VH with I12V, L45P, A60P, R94Y, L115Q
notes: KD005 humanized variant
B35: KD057 (antibody, V domains shown)
VH: B23 VH with Y50V
notes: KD005 humanized variant
B36: KD052 (antibody, V domains shown)
VH: B23 VH with Q1E, Q5V, Y50V, R94Y
notes: KD005 humanized variant
B37: KD056 (antibody, V domains shown)
VH: B23 VH with Q5V
notes: KD005 humanized variant
B38: KD061 (antibody, V domains shown)
VH: B23 VH with E88D
notes: KD005 humanized variant
B39: KD060 (antibody, V domains shown)
VH: B23 VH with A60P
notes: KD005 humanized variant
B40: KD050 (antibody, V domains shown)
VH: B23 VH with I12V, L45P, A60P, R86K, A87P, E88D, L115Q
notes: KD005 humanized variant
B41: KD055 (antibody, V domains shown)
VH: B23 VH with Q1E
notes: KD005 humanized variant
B42: KD047 (antibody, V domains shown)
VH: B23 VH with Q5L, I12V, L45P
notes: KD005 humanized variant
B43: KD063 (antibody, V domains shown)
VH: B23 VH with Q13E, L115Q
notes: KD005 humanized variant
B44: KD053 (antibody, V domains shown)
VH: B23 VH with L45P, A60P, E88D, V92L
notes: KD005 humanized variant

target: T1, recombinant human TROP2 extracellular …; assay: ELISA, coated rh TROP2
Method: (§1) Human TROP2 recombinant proteins were coated on 96-well ELISA plates at the concentration of 1 μg/mL. Plates were covered with adhesive plate cover and stored at 4° C. overnight. The next day, plates were washed 3× with washing buffer (PBS with 0.1% Tween™ 20). Plates were blocked with 2% fat-free BSA in washing buffer for 1 hour at 37° C. During the incubation time, the TROP2 reference antibodies, as well as the humanized variants, were diluted in the blocking buffer to the indicated concentrations. […] After blocking, the blocking buffer was removed from the wells and 100 μL of anti-TROP2 sdAbs dilutions were transferred to the corresponding wells. Plates were covered with adhesive plates cover and incubated at 37° C. for 1 hour. During the primary antibody incubation, the secondary antibody (goat anti-human IgG, HRP conjugated) was diluted 1 in 5000 with the blocking buffer. Plates were washed 3× with blocking buffer, followed by secondary antibody incubation for another 1 hour at 37° C. After the secondary antibody incubation, plates were washed 3× with washing buffer and added with 100 μL of ELISA chemiluminescent substrate (Thermofisher). The luminescence signal was detected by SpectraMax i3x at […].

Binder	EC50 [nM]
B1	0.12
B2	0.15
B3	0.07
B4	0.16
B5	0.14
B6	0.12
B7	0.08
B8	0.13
B9	0.09
B10	0.13
B11	0.05
B12	0.26
B13	4.3
B14	0.13
B15	0.07
B16	0.18
B17	0.15
B18	0.15
B19	0.11
B20	0.11
B21	0.09
B22	0.1

target: T1, recombinant human TROP2 extracellular …; assay: ELISA, coated rh TROP2; remark: another data set of the same source
Method: as §1

Binder	EC50 [nM]	EC50% to KD005
B23	0.07	0.875 ratio to KD005
B24	0.12	1.5 ratio to KD005
B25	0.1	1.25 ratio to KD005
B26	0.14	1.75 ratio to KD005
B27	0.14	1.75 ratio to KD005
B28	0.09	1.12 ratio to KD005
B29	0.14	1.75 ratio to KD005
B30	0.08	1 ratio to KD005
B31	0.09	1.12 ratio to KD005
B32	0.1	1.25 ratio to KD005
B33	0.08	1 ratio to KD005
B34	0.11	1.38 ratio to KD005
B35	0.09	1.12 ratio to KD005
B36	0.07	0.875 ratio to KD005
B37	0.09	1.12 ratio to KD005
B38	0.12	1.5 ratio to KD005
B39	0.11	1.38 ratio to KD005
B40	0.1	1.25 ratio to KD005
B41	0.08	1 ratio to KD005
B42	0.14	1.75 ratio to KD005
B43	0.12	1.5 ratio to KD005
B44	0.1	1.25 ratio to KD005

target: T1, recombinant human TROP2 extracellular …; assay: ELISA, coated rh TROP2, normalized to KD005

Binder	EC50 relative to KD005
B23	0.93 ratio to KD005
B28	1.01 ratio to KD005
B30	0.9 ratio to KD005
B31	1.01 ratio to KD005
B33	0.9 ratio to KD005
B35	1.15 ratio to KD005
B36	0.93 ratio to KD005
B37	1.21 ratio to KD005
B40	1.12 ratio to KD005
B41	1.12 ratio to KD005
